One may read the Kd as the concentration at which binding is half-saturated. High values mean a looser complex, low ones a tighter complex. A word on the koff: it is the rate constant with which the complex falls apart. Higher therefore signals a short-lived complex. Usually kon stands for a measure of how fast the partners come together. A high value points to fast association.

The values below come from patent US20190225669A1 (ACCELERON PHARMA, published 2019).

B1: BMP2 (ligand, UniProt P12643 283-396, looked up)
chain: QAKHKQRKRLKSSCKRHPLYVDFSDVGWNDWIVAPPGYHAFYCHGECPFPLADHLNSTNHAIVQTLVNSVNSKIPKACCVPTELSAISMLYLDENEKVVLKNYQDMVVEGCGCR
B3: GDF6 (ligand, UniProt Q6KF10 336-455, looked up)
chain: TAFASRHGKRHGKKSRLRCSKKPLHVNFKELGWDDWIIAPLEYEAYHCEGVCDFPLRSHLEPTNHAIIQTLMNSMDPGSTPPSCCVPTKLTPISILYIDAGNNVVYKQYEDMVVESCGCR
notes: also called BMP13

One assay has as its target T1, BMPRII-Fc homodimer (UniProt Q13873 27-150).
T1 construct: extracellular domain
T1 sequence (looked up): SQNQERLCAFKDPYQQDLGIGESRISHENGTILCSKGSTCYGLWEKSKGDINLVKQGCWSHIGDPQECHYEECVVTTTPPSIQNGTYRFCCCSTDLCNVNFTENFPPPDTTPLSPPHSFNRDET
The experiment in a line: Biacore SPR; kinetics indeterminate (transient). (SPR reads the build-up and loss of mass on a sensor chip optically.)

In a further assay the target is T2, GDF5 (UniProt P43026 382-501).
T2 construct: also called BMP14
T2 sequence (looked up): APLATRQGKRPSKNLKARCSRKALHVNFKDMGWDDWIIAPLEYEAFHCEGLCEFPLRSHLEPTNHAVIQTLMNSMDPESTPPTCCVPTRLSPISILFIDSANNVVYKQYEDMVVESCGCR
The experiment in a line: Biacore SPR. As for the experimental part: (§1) Ligands were injected and allowed to flow over the captured receptor protein.

The target in a further assay is T3, BMP5 (UniProt P22003 317-454, limits assumed).
T3 sequence (looked up): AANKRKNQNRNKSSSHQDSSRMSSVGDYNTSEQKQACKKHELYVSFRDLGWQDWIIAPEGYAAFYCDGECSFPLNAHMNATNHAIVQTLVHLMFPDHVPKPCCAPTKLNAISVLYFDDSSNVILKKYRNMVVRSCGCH
In words: Biacore SPR. As for the experimental part:
as §1

The target in the assay “BMP2” is B1. The experiment in a line: Biacore SPR. As for the experimental part:
as §1

Another assay has as its target T4, BMP6 (UniProt P22004 382-513, limits assumed).
T4 sequence (looked up): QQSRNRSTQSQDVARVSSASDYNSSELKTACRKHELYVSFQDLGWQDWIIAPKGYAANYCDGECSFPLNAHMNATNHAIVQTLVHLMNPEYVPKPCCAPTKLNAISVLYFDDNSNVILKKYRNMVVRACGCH
In words: Biacore SPR. As for the experimental part:
as §1

A further assay has as its target T5, BMP4 (UniProt P12644 293-408).
T5 sequence (looked up): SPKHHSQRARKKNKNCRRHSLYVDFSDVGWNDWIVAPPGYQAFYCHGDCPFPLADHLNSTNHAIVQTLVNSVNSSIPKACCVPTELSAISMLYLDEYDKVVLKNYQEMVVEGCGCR
The experiment in a line: Biacore SPR. The protocol:
as §1

For another assay, the target named is T6, activin A (UniProt P08476 311-426).
T6 sequence (looked up): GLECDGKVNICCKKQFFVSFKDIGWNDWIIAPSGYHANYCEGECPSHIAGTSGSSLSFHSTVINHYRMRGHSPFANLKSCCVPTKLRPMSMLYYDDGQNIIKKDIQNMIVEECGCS
The experiment in a line: Biacore SPR. As for the experimental part:
as §1

The target of the assay “GDF6” is B3. In words: Biacore SPR. The protocol: as §1
For the next assay, the target named is T7, BMP7 (UniProt P18075 293-431).
T7 sequence (looked up): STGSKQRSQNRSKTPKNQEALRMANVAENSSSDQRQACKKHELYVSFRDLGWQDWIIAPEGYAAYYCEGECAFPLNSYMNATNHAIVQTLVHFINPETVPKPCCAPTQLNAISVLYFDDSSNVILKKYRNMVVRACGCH
The experiment in a line: Biacore SPR. As for the experimental part:
as §1

The target of the next assay is T8, GDF3 (UniProt Q9NR23 251-364).
T8 sequence (looked up): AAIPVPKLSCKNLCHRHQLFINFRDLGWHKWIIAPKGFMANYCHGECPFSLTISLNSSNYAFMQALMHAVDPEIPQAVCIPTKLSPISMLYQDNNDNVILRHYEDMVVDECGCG
In words: Biacore SPR. As for the experimental part:
as §1

The target of another assay is T9, GDF8 (UniProt O14793 267-375).
T9 construct: also called myostatin
T9 sequence (looked up): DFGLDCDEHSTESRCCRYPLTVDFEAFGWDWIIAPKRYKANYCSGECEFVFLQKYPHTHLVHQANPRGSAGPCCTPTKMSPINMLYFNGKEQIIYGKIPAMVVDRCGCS
The experiment in a line: Biacore SPR. As for the experimental part:
as §1

In a further assay the target is T10, GDF7 (UniProt Q7Z4P5 322-450, limits assumed).
T10 construct: also called BMP12
T10 sequence (looked up): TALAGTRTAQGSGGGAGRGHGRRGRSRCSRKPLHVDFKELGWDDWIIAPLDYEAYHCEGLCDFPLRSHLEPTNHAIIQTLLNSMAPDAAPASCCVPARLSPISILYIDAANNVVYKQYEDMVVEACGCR
The experiment in a line: Biacore SPR. The protocol:
as §1

The target of another assay is T11, activin B (UniProt P09529 293-407).
T11 sequence (looked up): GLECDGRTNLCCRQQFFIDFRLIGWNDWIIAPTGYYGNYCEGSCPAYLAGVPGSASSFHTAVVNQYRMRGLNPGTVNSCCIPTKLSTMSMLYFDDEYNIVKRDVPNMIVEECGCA
In words: Biacore SPR. The protocol:
as §1

The next assay addresses T12, BMP10 (UniProt O95393 317-424).
T12 sequence (looked up): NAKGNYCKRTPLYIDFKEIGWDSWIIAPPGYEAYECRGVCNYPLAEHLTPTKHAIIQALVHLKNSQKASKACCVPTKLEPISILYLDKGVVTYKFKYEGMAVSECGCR
In words: Biacore SPR. As for the experimental part:
as §1

The target of a further assay is T13, GDF11 (UniProt O95390 299-407).
T13 construct: also called BMP11
T13 sequence (looked up): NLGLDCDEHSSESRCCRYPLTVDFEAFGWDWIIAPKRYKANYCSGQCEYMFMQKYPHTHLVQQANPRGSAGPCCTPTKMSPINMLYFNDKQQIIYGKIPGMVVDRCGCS
The experiment in a line: Biacore SPR. As for the experimental part:
as §1

For the next assay, the target named is T14, BMP9 (UniProt Q9UK05 320-429).
T14 construct: also called GDF2
T14 sequence (looked up): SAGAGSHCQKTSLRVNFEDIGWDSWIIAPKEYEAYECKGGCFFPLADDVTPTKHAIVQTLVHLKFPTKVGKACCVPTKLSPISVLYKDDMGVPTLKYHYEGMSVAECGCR
The experiment in a line: Biacore SPR; kinetics indeterminate (transient). As for the experimental part: as §1

The target of assay [1] is T15, ALK3-Fc homodimer (UniProt P36894 24-152).
T15 construct: extracellular domain
The experiment in a line: Biacore SPR. As for the experimental part: as §1

The target of assay [2] is T15, ALK3-Fc homodimer. In words: Biacore SPR. As for the experimental part: as §1
The source holds these as a separate data set.

Like-named read-outs stand apart in the source and are kept apart here. A value given as a limit tells only on which side of the number the result lay.

In the assay with BMPRII-Fc homodimer, B1 came in with a Kd of more than 2000 nM.

B2: ActRIIB-Fc:ALK3-Fc heterodimer (Fc fusion)
chain 1: GRGEAETRECIYYNANWELERTNQSGLERCEGEQDKRLHCYASWRNSSGTIELVKKGCWLDDFNCYDRQECVATEENPQVYFCCCEGNFCNERFTHLPEAGGPEVTYEPPPTAPTGGGTHTCPPCPAPELLGGPSVFLFPPKPKDTLMISRTPEVTCVVVDVSHEDPEVKFNWYVDGVEVHNAKTKPREEQYNSTYRVVSVLTVLHQDWLNGKEYKCKVSNKALPAPIEKTISKAKGQPREPQVYTLPPSRKEMTKNQVSLTCLVKGFYPSDIAVEWESNGQPENNYKTTPPVLKSDGSFFLYSKLTVDKSRWQQGNVFSCSVMHEALHNHYTQKSLSLSPGK
chain 2: GAQNLDSMLHGTGMKSDSDQKKSENGVTLAPEDTLPFLKCYCSGHCPDDAINNTCITNGHCFAIIEEDDQGETTLASGCMKYEGSDFQCKDSPKAQLRRTIECCRTNLCNQYLQPTLPPVVIGPFFDGSIRTGGGTHTCPPCPAPELLGGPSVFLFPPKPKDTLMISRTPEVTCVVVDVSHEDPEVKFNWYVDGVEVHNAKTKPREEQYNSTYRVVSVLTVLHQDWLNGKEYKCKVSNKALPAPIEKTISKAKGQPREPQVYTLPPSREEMTKNQVSLTCLVKGFYPSDIAVEWESNGQPENNYDTTPPVLDSDGSFFLYSDLTVDKSRWQQGNVFSCSVMHEALHNHYTQKSLSLSPG
notes: C-terminal Lys optional; also called ActRIIB-Fc:ALK3-Fc heterodimeric complex
Turning to B2, the Kd in the assay with GDF5 worked out at 0.07 nM; with BMP5, 0.64 nM; with BMP2, 0.001 nM; with BMP6, 0.015 nM; with BMP4, 0.003 nM; with activin A it was 0.15 nM. For the same molecule, the dissociation constant Kd with GDF6 amounted to 1.6 nM; with BMP7 it was 1.9 nM; in the assay with GDF3, 5.9 nM; in the assay with GDF8 it was 0.31 nM; with GDF7, 0.052 nM; with activin B, 0.2 nM. For the same molecule, the Kd with BMP10 was 0.031 nM; with GDF11 it was 0.066 nM; in the assay with BMP9, more than 33 nM. For the same molecule, the koff was 0.00083 s⁻¹ with GDF5; 0.00058 s⁻¹ with BMP5; 1.1e-05 s⁻¹ in the assay with BMP2; 0.00029 s⁻¹ in the assay with BMP6; 6.5e-06 s⁻¹ with BMP4; 0.005 s⁻¹ with activin A. Further, the dissociation rate constant (koff) with GDF6 was determined as 0.00045 s⁻¹; with BMP7, 0.0015 s⁻¹; in the assay with GDF3 it was 0.082 s⁻¹; with GDF8, 0.00092 s⁻¹; in the assay with GDF7, 0.0004 s⁻¹; with activin B, 0.00057 s⁻¹. In addition, the koff with BMP10 came to 0.00094 s⁻¹; in the assay with GDF11, 0.0011 s⁻¹. The kon in the assay with GDF5 stood at 1.2e+07 M⁻¹ s⁻¹; with BMP5, 900000 M⁻¹ s⁻¹; in the assay with BMP2, 8e+06 M⁻¹ s⁻¹; with BMP6, 2e+07 M⁻¹ s⁻¹; in the assay with BMP4 it was 2.6e+06 M⁻¹ s⁻¹; in the assay with activin A, 3.4e+07 M⁻¹ s⁻¹. Also, the kon was 280000 M⁻¹ s⁻¹ with GDF6; 820000 M⁻¹ s⁻¹ in the assay with BMP7; 1.4e+07 M⁻¹ s⁻¹ with GDF3; 3e+06 M⁻¹ s⁻¹ with GDF8; 7.5e+06 M⁻¹ s⁻¹ with GDF7; 2.8e+06 M⁻¹ s⁻¹ with activin B. The kon in the assay with BMP10 is 3e+07 M⁻¹ s⁻¹; with GDF11, 1.6e+07 M⁻¹ s⁻¹.
B3: in the assay with ALK3-Fc homodimer [1], the affinity, expressed as Kd, was 40 nM; the koff amounted to 0.0013 s⁻¹; the kon is 34000 M⁻¹ s⁻¹. The same molecule returned a Kd with BMPRII-Fc homodimer of more than 88 nM. Also, in the assay with ALK3-Fc homodimer [2], the affinity, expressed as Kd, was 40 nM; the koff came to 0.0013 s⁻¹; the kon turned out to be 34000 M⁻¹ s⁻¹.
